According to the supplement of paper PMC9112550, “Optimization of the antimicrobial peptide Bac7 by deep mutational scanning” (BMC Biology, 2022):

System: Escherichia coli TOP10
Assay: shrunken log2 fold change of peptide-encoding DNA abundance (4.5 h post-induction vs induction); higher = less antimicrobial activity (less host growth inhibition)
Conditions: time post-induction: 4.5 h; library: site-saturation at positions 5, 18, 19, 20
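Note: peptides expressed intracellularly from a pBAD plasmid library in pooled LB shake-flask culture, induced with 0.3% L-arabinose, DNA abundance read by NGS, three biological replicates, DESeq2 with apeglm shrinkage.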

Sequence | shrunken log2 fold change
RRIRQRPPRLPRPRPRPALFPRP | -0.0103
RRIRCRPPRLPRPRPRPDKYPRP | -0.717
RRIRARPPRLPRPRPRPSMQPRP | 0.352
RRIRIRPPRLPRPRPRPYCMPRP | -1.34
RRIRARPPRLPRPRPRPLCRPRP | 0.327
RRIRERPPRLPRPRPRPDLKPRP | -0.108
RRIRIRPPRLPRPRPRPRFWPRP | 0.345
RRIRNRPPRLPRPRPRPFRMPRP | 0.00572
RRIRRRPPRLPRPRPRPPYIPRP | 0.141
RRIRCRPPRLPRPRPRPWESPRP | 0.0539
RRIRFRPPRLPRPRPRPEKKPRP | 0.0265
RRIRNRPPRLPRPRPRPKDSPRP | -0.0312
RRIRCRPPRLPRPRPRPSHVPRP | -0.387
RRIRLRPPRLPRPRPRPYRTPRP | -0.197
RRIRCRPPRLPRPRPRPPIMPRP | -0.0556
RRIRVRPPRLPRPRPRPMYEPRP | -0.774
RRIRRRPPRLPRPRPRPSQNPRP | 0.0754
RRIRRRPPRLPRPRPRPVPAPRP | 1.06
RRIRLRPPRLPRPRPRPNWNPRP | -0.386
RRIRSRPPRLPRPRPRPHTKPRP | 0.0141
RRIRLRPPRLPRPRPRPKLKPRP | 0.295
RRIRVRPPRLPRPRPRPGLEPRP | 0.0118
RRIRNRPPRLPRPRPRPYGHPRP | -0.256
RRIRTRPPRLPRPRPRPKSPPRP | -0.0758
RRIRRRPPRLPRPRPRPHRIPRP | -0.279

Sequence | shrunken log2 fold change
RRIRFRPPRLPRPRPRPLNVPRP | -0.345
RRIRSRPPRLPRPRPRPYQKPRP | -0.122
RRIRNRPPRLPRPRPRPVSDPRP | -0.192
RRIRKRPPRLPRPRPRPYKLPRP | -0.281
RRIRQRPPRLPRPRPRPCRLPRP | -0.15
RRIRRRPPRLPRPRPRPVIVPRP | -0.114
RRIRARPPRLPRPRPRPWIQPRP | -0.103
RRIRHRPPRLPRPRPRPTPAPRP | 0.681
RRIRQRPPRLPRPRPRPTCQPRP | -0.125
RRIRCRPPRLPRPRPRPDQDPRP | 0.0433
RRIRARPPRLPRPRPRPIQTPRP | -0.0208
RRIRGRPPRLPRPRPRPRSGPRP | 0.83
RRIRRRPPRLPRPRPRPNNNPRP | -0.426
RRIRNRPPRLPRPRPRPNYIPRP | -0.318
RRIRCRPPRLPRPRPRPCNNPRP | -0.31
RRIRSRPPRLPRPRPRPIQQPRP | -0.0226
RRIRWRPPRLPRPRPRPWYRPRP | -0.174
RRIRYRPPRLPRPRPRPWIQPRP | -0.101
RRIRYRPPRLPRPRPRPSVRPRP | -0.301
RRIRARPPRLPRPRPRPHWAPRP | -0.0191
RRIRKRPPRLPRPRPRPHQHPRP | 0.213
RRIRPRPPRLPRPRPRPLLTPRP | 0.252
RRIRRRPPRLPRPRPRPVWKPRP | 0.147
RRIRSRPPRLPRPRPRPGIEPRP | 0.158
RRIRFRPPRLPRPRPRPMKHPRP | -0.149

Sequence | shrunken log2 fold change
RRIRERPPRLPRPRPRPFPSPRP | -0.0393
RRIRWRPPRLPRPRPRPGVQPRP | 0.309
RRIRSRPPRLPRPRPRPAKIPRP | -0.0773
RRIRYRPPRLPRPRPRPCARPRP | -0.0708
RRIRPRPPRLPRPRPRPAADPRP | 0.282
RRIRARPPRLPRPRPRPAWWPRP | 0.895
RRIRDRPPRLPRPRPRPWSVPRP | 0.0902
RRIRKRPPRLPRPRPRPLPKPRP | 0.54
RRIRQRPPRLPRPRPRPAPMPRP | 0.538
RRIRHRPPRLPRPRPRPEYMPRP | -0.05
RRIRMRPPRLPRPRPRPKIHPRP | -0.0387
RRIRWRPPRLPRPRPRPIIKPRP | -0.312
RRIRFRPPRLPRPRPRPQSRPRP | 0.0257
RRIRLRPPRLPRPRPRPTGFPRP | -0.158
RRIRIRPPRLPRPRPRPCVTPRP | -0.22
RRIRRRPPRLPRPRPRPGYDPRP | 0.0506
RRIRQRPPRLPRPRPRPKHLPRP | 0.0736
RRIRLRPPRLPRPRPRPNRDPRP | -0.124
RRIRCRPPRLPRPRPRPRYFPRP | -0.529
RRIRYRPPRLPRPRPRPFHEPRP | -0.245
RRIRHRPPRLPRPRPRPMCYPRP | 0.118
RRIRMRPPRLPRPRPRPLDQPRP | 1.12
RRIRHRPPRLPRPRPRPTNWPRP | 0.0467
RRIRIRPPRLPRPRPRPEAAPRP | 0.538
RRIRIRPPRLPRPRPRPFQYPRP | -0.0506

Sequence | shrunken log2 fold change
RRIRERPPRLPRPRPRPICCPRP | -0.133
RRIRYRPPRLPRPRPRPGYVPRP | -1.05
RRIRVRPPRLPRPRPRPENRPRP | -0.221
RRIRVRPPRLPRPRPRPMYYPRP | -0.706
RRIRVRPPRLPRPRPRPSINPRP | -0.243
RRIRQRPPRLPRPRPRPMFYPRP | -0.503
RRIRSRPPRLPRPRPRPCLSPRP | -0.000866
RRIRPRPPRLPRPRPRPMLPPRP | 0.0406
RRIRPRPPRLPRPRPRPYEDPRP | -0.163
RRIRSRPPRLPRPRPRPWWLPRP | 0.0261
RRIRRRPPRLPRPRPRPPNMPRP | 0.402
RRIRIRPPRLPRPRPRPYAVPRP | -0.937
RRIRKRPPRLPRPRPRPTDYPRP | 0.124
RRIRARPPRLPRPRPRPDPRPRP | 0.254
RRIRARPPRLPRPRPRPNEEPRP | 0.276
RRIRHRPPRLPRPRPRPHIMPRP | -0.63
RRIRVRPPRLPRPRPRPGWFPRP | 0.22
RRIRFRPPRLPRPRPRPIGSPRP | -0.241
RRIRDRPPRLPRPRPRPHRYPRP | -0.21
RRIRVRPPRLPRPRPRPMNFPRP | -0.349
RRIRERPPRLPRPRPRPLSYPRP | -0.193
RRIRQRPPRLPRPRPRPELKPRP | 0.0791
RRIRTRPPRLPRPRPRPHRIPRP | -0.052
RRIRRRPPRLPRPRPRPWTAPRP | -0.106
RRIRMRPPRLPRPRPRPRDIPRP | -0.0288

Sequence | shrunken log2 fold change
RRIRGRPPRLPRPRPRPQSRPRP | 0.328
RRIRDRPPRLPRPRPRPLYQPRP | -0.0432
RRIRYRPPRLPRPRPRPWHTPRP | -1.52
RRIRKRPPRLPRPRPRPAEFPRP | 0.0773
RRIRRRPPRLPRPRPRPHQMPRP | 0.19
RRIRLRPPRLPRPRPRPNPWPRP | 0.0455
RRIRNRPPRLPRPRPRPVVVPRP | -0.11
RRIRVRPPRLPRPRPRPPAIPRP | 0.376
RRIRRRPPRLPRPRPRPFTLPRP | -0.2
RRIRNRPPRLPRPRPRPFFQPRP | -0.427
RRIRGRPPRLPRPRPRPLCPPRP | 0.422
RRIRRRPPRLPRPRPRPQVKPRP | 0.132
RRIRWRPPRLPRPRPRPRKHPRP | 0.15
RRIRFRPPRLPRPRPRPMKKPRP | -0.0398
RRIRRRPPRLPRPRPRPENFPRP | -0.0287
RRIRGRPPRLPRPRPRPLEGPRP | 0.0436
RRIRHRPPRLPRPRPRPAGTPRP | -0.04
RRIRDRPPRLPRPRPRPPRKPRP | 0.758
RRIRPRPPRLPRPRPRPLQQPRP | 0.176
RRIRVRPPRLPRPRPRPLRQPRP | 0.395
RRIRPRPPRLPRPRPRPPKGPRP | 0.308
RRIRPRPPRLPRPRPRPDAMPRP | 0.319
RRIRERPPRLPRPRPRPTTRPRP | 0.0679
RRIRCRPPRLPRPRPRPWIFPRP | -0.159
RRIRGRPPRLPRPRPRPCYLPRP | -0.177
